The results in this text go back to patent US5834290.

The test concerns the target stratum corneum chymotryptic enzyme (SCCE), native, from human plantar stratum corneum (human).

The substance “soybean trypsin inhibitor (SBTI) (from UniProt P01070)” registered a hydrolysis of S-2586 by the proteinase associated with plantar stratum corneum cells, Activity (%) of 6 % activity.
